These results are taken from paper PMC7610778 (Science (New York, N.Y.), 2020).

Where two headings read alike, the source gives them in different places.

B2: Atg12–Atg5-Atg16-mCherry complex (complex)
chain 1: MSRILESENETESDESSIISTNNGTAMERSRNNQELRSSPHTVQNRLELFSRRLSQLGLASDISVDQQVEDSSSGTYEQEETIKTNAQTSKQKSHKDEKNIQKIQIKFQPIGSIGQLKPSVCKISMSQSFAMVILFLKRRLKMDHVYCYINNSFAPSPQQNIGELWMQFKTNDELIVSYCASVAFG
chain 2: MNDIKQLLWNGELNVLVSIDPSFLMKGSPREIAVLRIRVPRETYLVNYMPLIWNKIKSFLSFDPLTDSEKYFWFEHNKTPIPWNYPVGVLFDCLAGKSATFTTSFENQVKDVLTFLRIHLVMGDSLPPTIIPIASSKTQAEKFWFHQWKQVCFILNGSSKAIMSLSVNEARKFWGSVITRNFQDFIEISNKISSSRPRHIPLIIQTSRTSGTFRISQPTISMTGVNPTLKDIEGDILDVKEGINGNDVMVICQGIEIPWHMLLYDLYSKLRSFDGFLYITLVPIKGGDKASSEL
chain 3: MGNFIITERKKAKEERSNPQTDSMDDLLIRRLTDRNDKEAHLNELFQDNSGAIGGNIVSHDDALLNTLAILQKELKSKEQEIRRLKEVIALKNKNTERLNDELISGTIENNVLQQKLSDLKKEHSQLVARWLKKTEKETEAMNSEIDGTK
modifications: Atg12–Atg5 conjugate | Atg12–Atg5 conjugate

Assay in all cases: pull-down
In assay [1] the target is B2.
For assay [2], the target named is Atg2-GFP-Atg18-CBP complex (yeast (S. cerevisiae), UniProt P53855;P43601).
Atg2-GFP-Atg18-CBP complex, sequence (P53855 whole entry, one chain of several): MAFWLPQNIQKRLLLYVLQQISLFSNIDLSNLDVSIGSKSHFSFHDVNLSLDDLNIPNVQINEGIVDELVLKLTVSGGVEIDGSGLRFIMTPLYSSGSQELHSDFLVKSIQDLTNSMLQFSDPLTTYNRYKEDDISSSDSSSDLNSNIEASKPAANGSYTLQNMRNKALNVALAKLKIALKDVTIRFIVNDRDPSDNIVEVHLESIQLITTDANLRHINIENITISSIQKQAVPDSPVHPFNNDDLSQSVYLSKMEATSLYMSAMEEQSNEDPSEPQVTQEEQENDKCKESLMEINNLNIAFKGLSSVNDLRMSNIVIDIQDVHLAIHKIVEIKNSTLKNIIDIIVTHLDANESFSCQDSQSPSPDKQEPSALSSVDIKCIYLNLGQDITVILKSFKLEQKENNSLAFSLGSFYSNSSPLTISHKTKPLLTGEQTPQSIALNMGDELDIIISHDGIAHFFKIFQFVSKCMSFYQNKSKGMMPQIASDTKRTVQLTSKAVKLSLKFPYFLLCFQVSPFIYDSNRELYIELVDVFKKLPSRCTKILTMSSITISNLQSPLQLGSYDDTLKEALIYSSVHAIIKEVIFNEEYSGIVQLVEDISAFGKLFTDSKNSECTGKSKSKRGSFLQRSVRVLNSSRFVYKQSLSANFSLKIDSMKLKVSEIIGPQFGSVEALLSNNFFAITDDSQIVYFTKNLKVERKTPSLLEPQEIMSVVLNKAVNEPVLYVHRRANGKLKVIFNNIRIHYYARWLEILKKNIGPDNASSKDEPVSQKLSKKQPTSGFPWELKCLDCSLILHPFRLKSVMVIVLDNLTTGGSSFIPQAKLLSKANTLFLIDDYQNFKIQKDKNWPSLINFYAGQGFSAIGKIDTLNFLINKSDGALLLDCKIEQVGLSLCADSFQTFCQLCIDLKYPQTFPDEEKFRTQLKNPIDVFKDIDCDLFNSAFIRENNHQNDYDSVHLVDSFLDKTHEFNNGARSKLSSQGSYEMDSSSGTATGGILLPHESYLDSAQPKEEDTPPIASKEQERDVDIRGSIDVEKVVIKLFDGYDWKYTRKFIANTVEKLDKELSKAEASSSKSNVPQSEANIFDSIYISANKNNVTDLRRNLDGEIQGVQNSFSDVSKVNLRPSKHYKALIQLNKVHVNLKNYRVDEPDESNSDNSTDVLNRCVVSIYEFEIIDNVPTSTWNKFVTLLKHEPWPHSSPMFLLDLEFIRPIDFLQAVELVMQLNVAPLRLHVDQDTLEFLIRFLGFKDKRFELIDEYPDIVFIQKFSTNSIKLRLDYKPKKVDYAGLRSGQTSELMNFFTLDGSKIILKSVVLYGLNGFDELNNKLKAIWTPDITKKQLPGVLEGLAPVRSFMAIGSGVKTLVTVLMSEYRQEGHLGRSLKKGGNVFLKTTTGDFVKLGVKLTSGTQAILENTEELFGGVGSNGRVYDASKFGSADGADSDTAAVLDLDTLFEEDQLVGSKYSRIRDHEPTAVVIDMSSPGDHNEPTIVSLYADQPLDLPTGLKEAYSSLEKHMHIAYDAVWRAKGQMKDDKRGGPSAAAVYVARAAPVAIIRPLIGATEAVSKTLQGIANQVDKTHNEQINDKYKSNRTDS
For a further assay, the target named is Atg2-mEGFP (yeast (S. cerevisiae), UniProt P53855 1-1592).
Atg2-mEGFP, sequence (P53855 whole entry): as the sequence (P53855 whole entry, one chain of several) above
The target in assay [3] is B2. The source holds these as a separate data set.
Assay [4] deals with T1, Atg19-3D (S390D, S391D, S396D) (S. cerevisiae, UniProt P35193 1-415, S390D | S391D | S396D).
T1 sequence: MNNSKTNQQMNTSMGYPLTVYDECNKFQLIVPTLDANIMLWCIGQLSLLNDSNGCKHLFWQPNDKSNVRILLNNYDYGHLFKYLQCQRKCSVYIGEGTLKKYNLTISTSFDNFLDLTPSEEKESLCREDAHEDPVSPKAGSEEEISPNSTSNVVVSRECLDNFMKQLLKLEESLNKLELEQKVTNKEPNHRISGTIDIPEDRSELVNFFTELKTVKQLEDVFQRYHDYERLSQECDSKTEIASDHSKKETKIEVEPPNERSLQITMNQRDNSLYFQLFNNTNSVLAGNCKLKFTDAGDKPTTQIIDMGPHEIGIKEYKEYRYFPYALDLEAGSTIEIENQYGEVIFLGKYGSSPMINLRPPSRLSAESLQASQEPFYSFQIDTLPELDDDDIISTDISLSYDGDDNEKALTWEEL

B1: Atg18-mEGFP (natural protein)
chain: MSDSSPTINFINFNQTGTCISLGTSKGFKIFNCEPFGKFYSEDSGGYAIVEMLFSTSLLALVGIGDQPALSPRRLRIINTKKHSIICEVTFPTSILSVKMNKSRLVVLLQEQIYIYDINTMRLLHTIETNPNPRGLMAMSPSVANSYLVYPSPPKVINSEIKAHATTNNITLSVGGNTETSFKRDQQDAGHSDISDLDQYSSFTKRDDADPTSSNGGNSSIIKNGDVIVFNLETLQPTMVIEAHKGEIAAMAISFDGTLMATASDKGTIIRVFDIETGDKIYQFRRGTYATRIYSISFSEDSQYLAVTGSSKTVHIFKLGHSMSNNKLDSDDSNMEEAAADDSSLDTTSIDALSDEENPTRLAREPYVDASRKTMGRMIRYSSQKLSRRAARTLGQIFPIKVTSLLESSRHFASLKLPVETNSHVMTISSIGSPIDIDTSEYPELFETGNSASTESYHEPVMKMVPIRVVSSDGYLYNFVMDPERGGDCLILSQYSILMD
Take B1: the binding result in assay [1] is listed as “binds”.

Turning to B2, the binding result (in assay [2]; in the assay with Atg2-mEGFP) was “binds” each time.

B3: mEGFP-Atg21 (natural protein)
chain: MKVLQFNQDATCCVVAASSHQISIFNCDPFGKCFEIDTKNSKKKTSNNNGSASNSESRNNEESILITNGSRDRTDAEEEEDNEDNALVTGNILKEGEFVIEMLFSTSLIAIADRGQGLNKGKKLKIVNTKRKCTICEIVFPHEIVDVVMNRKRMCVLLESDQIFIYDISCMKPLETIDLWEDHYKRSQANSFSNASNTGTLEGDSANLNRVATNLLANATQKSVNGSNPSVRTRRNSLRSKIRPRMVLSNDDRSILCFTAYSSPKKNKPNSEALYDVVIYDTLNVTPVNYLNSVHKGNVACLAVSHDGKLLATASDKGTIIRVFHTGVDSDYMSSRSLFKEFRRGTRLCNLYQLAFDKSMTMIGCVGDTDTIHLFKLDDASNSLPGDNSSNGHWNEEEYILASNSNPSMGTPKEIPLSKPRIANYFSKKIKSSIPNQNLSRNFAYITVNESNRSCLGFPDEFPNQVYIASDDGTFSIYSIPSKPGECVLTKNNKFT
With B3, the binding result in assay [3] was “binds”.

For the molecule MEEQREILEQLKKTLQMLTVEPSKNNQIANEEKEKKENENS (domain or fragment) [GST-prApe1 (1-41)], the binding result in assay [4] is on record as “binds”.
